Experimental data from the supplement of paper PMC9112550, “Optimization of the antimicrobial peptide Bac7 by deep mutational scanning” (BMC Biology, 2022).

tested on: Escherichia coli TOP10; test: shrunken log2 fold change of peptide-encoding DNA abundance (4.5 h post-induction vs induction); higher = less antimicrobial activity (less host growth inhibition); conditions: time post-induction: 4.5 h; library: site-saturation at positions 5, 18, 19, 20
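Further: peptides expressed intracellularly from a pBAD plasmid library in pooled LB shake-flask culture, induced with 0.3% L-arabinose, DNA abundance read by NGS, three biological replicates, DESeq2 with apeglm shrinkage.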

Sequence	shrunken log2 fold change
RRIRMRPPRLPRPRPRPVEKPRP	1.01
RRIRMRPPRLPRPRPRPVEQPRP	0.0366
RRIRMRPPRLPRPRPRPVETPRP	-0.00114
RRIRMRPPRLPRPRPRPVFAPRP	0.378
RRIRMRPPRLPRPRPRPVIFPRP	-0.237
RRIRMRPPRLPRPRPRPVKYPRP	0.0631
RRIRMRPPRLPRPRPRPVMVPRP	0.0724
RRIRMRPPRLPRPRPRPVNCPRP	0.181
RRIRMRPPRLPRPRPRPVNGPRP	-0.0577
RRIRMRPPRLPRPRPRPVNLPRP	-0.0198
RRIRMRPPRLPRPRPRPVPVPRP	0.364
RRIRMRPPRLPRPRPRPVQEPRP	0.051
RRIRMRPPRLPRPRPRPVRQPRP	0.332
RRIRMRPPRLPRPRPRPVRVPRP	1.74
RRIRMRPPRLPRPRPRPVSWPRP	0.553
RRIRMRPPRLPRPRPRPVTCPRP	0.0862
RRIRMRPPRLPRPRPRPVTNPRP	0.0903
RRIRMRPPRLPRPRPRPVVPPRP	-0.107
RRIRMRPPRLPRPRPRPVVYPRP	-0.0377
RRIRMRPPRLPRPRPRPVYDPRP	-0.399
RRIRMRPPRLPRPRPRPVYQPRP	-0.372
RRIRMRPPRLPRPRPRPWALPRP	0.0536
RRIRMRPPRLPRPRPRPWASPRP	0.0142
RRIRMRPPRLPRPRPRPWDEPRP	0.391
RRIRMRPPRLPRPRPRPWDMPRP	0.00416

Sequence	shrunken log2 fold change
RRIRMRPPRLPRPRPRPWEPPRP	0.127
RRIRMRPPRLPRPRPRPWFIPRP	-0.183
RRIRMRPPRLPRPRPRPWGAPRP	0.698
RRIRMRPPRLPRPRPRPWGEPRP	0.232
RRIRMRPPRLPRPRPRPWHEPRP	-0.126
RRIRMRPPRLPRPRPRPWHFPRP	0.201
RRIRMRPPRLPRPRPRPWHHPRP	-0.0514
RRIRMRPPRLPRPRPRPWIDPRP	-0.146
RRIRMRPPRLPRPRPRPWITPRP	-0.00122
RRIRMRPPRLPRPRPRPWKFPRP	0.0673
RRIRMRPPRLPRPRPRPWKVPRP	-0.0135
RRIRMRPPRLPRPRPRPWLHPRP	-0.493
RRIRMRPPRLPRPRPRPWLSPRP	0.0302
RRIRMRPPRLPRPRPRPWMCPRP	-0.01
RRIRMRPPRLPRPRPRPWNNPRP	-0.964
RRIRMRPPRLPRPRPRPWPPPRP	1.09
RRIRMRPPRLPRPRPRPWPWPRP	-0.00171
RRIRMRPPRLPRPRPRPWQVPRP	-0.0506
RRIRMRPPRLPRPRPRPWSDPRP	-0.131
RRIRMRPPRLPRPRPRPWSLPRP	-0.385
RRIRMRPPRLPRPRPRPWVCPRP	0.154
RRIRMRPPRLPRPRPRPYALPRP	0.0157
RRIRMRPPRLPRPRPRPYANPRP	-0.139
RRIRMRPPRLPRPRPRPYCHPRP	-0.545
RRIRMRPPRLPRPRPRPYDLPRP	-0.242

Sequence	shrunken log2 fold change
RRIRMRPPRLPRPRPRPYDQPRP	0.102
RRIRMRPPRLPRPRPRPYERPRP	-0.0671
RRIRMRPPRLPRPRPRPYHWPRP	-0.101
RRIRMRPPRLPRPRPRPYISPRP	-0.353
RRIRMRPPRLPRPRPRPYKGPRP	-0.046
RRIRMRPPRLPRPRPRPYKSPRP	-0.215
RRIRMRPPRLPRPRPRPYMIPRP	-0.00479
RRIRMRPPRLPRPRPRPYPTPRP	-0.114
RRIRMRPPRLPRPRPRPYQKPRP	-0.0182
RRIRMRPPRLPRPRPRPYQNPRP	0.0826
RRIRMRPPRLPRPRPRPYQPPRP	0.0396
RRIRMRPPRLPRPRPRPYRWPRP	-0.00788
RRIRMRPPRLPRPRPRPYSDPRP	-0.329
RRIRMRPPRLPRPRPRPYSEPRP	0.171
RRIRMRPPRLPRPRPRPYSSPRP	-0.115
RRIRMRPPRLPRPRPRPYTAPRP	0.147
RRIRMRPPRLPRPRPRPYTTPRP	-0.335
RRIRMRPPRLPRPRPRPYTWPRP	-0.101
RRIRMRPPRLPRPRPRPYVPPRP	-0.584
RRIRMRPPRLPRPRPRPYYPPRP	-0.159
RRIRNRPPRLPRPRPRPACCPRP	0.236
RRIRNRPPRLPRPRPRPAHHPRP	-0.0626
RRIRNRPPRLPRPRPRPAIAPRP	0.0215
RRIRNRPPRLPRPRPRPAIKPRP	-0.383
RRIRNRPPRLPRPRPRPAKEPRP	0.0446
